# Biological target: T1, OhrR-C (chromosomal OhrR) (Acinetobacter baumannii ATCC 19606) (UniProt A0A077GRS4)
# T1 sequence: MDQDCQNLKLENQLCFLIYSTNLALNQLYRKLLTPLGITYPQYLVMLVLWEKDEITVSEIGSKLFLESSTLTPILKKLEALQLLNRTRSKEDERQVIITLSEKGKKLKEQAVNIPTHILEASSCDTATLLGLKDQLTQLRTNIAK
# Experiment: EMSA
# Settings: 20 mM Tris-HCl pH 7.5, 100 mM MgCl2, 150 mM KCl, 50 mM EDTA, 12.5% glycerol, 250 uM DTT, 830 ng/mL poly(dI-dC), 250 ng/mL BSA, 50 nM DNA; room temperature …
sequence,measurement,value
TGTATATTACCTTGCTTAATATTATATTGTGTAAAATATAATTGCACACAATTAAATATAGGTCAATTATTTTCCTTTGTTTTTTATTTAACATAATGGGCGTTATATGAAATTCAAAAAAATGATACTATTTTTGTGATAATTAAATAAATTTTAGGTGAACATAAGTTAAATAGAGCTTATATCGGCC (double strand) [Pohr-p],binding,binds more weakly
